Laboratory results reported in article PMC7772773 (2020).

B1: myc-HTR6 [mouse] / EGFP-RABL2B [human] (parent complex)
chain 1: MVPEPGPVNSSTPAWGPGPPPAPGGSGWVAAALCVVIVLTAAANSLLIALICTQPALRNTSNFFLVSLFTSDLMVGLVVMPPAMLNALYGRWVLARGLCLLWTAFDVMCCSASILNLCLISLDRYLLILSPLRYKLRMTAPRALALILGAWSLAALASFLPLLLGWHELGKARTSAPGQCRLLASLPYVLVASGVTFFLPSGAICFTYCRILLAARKQAVQVASLTTGTATAGQALETLQVPRTPRPGMESADSRRLTTKHSRKALKASLTLGILLSMFFVTWLPFFVASIAQAVCDCISPGLFDVLTWLGYCNSTMNPIIYPLFMRDFKRALGRFVPCVHCPPEHRASPASPSMWTSHSGARPGLSLQQVLPLPLPPNSDSDSASGGTSGLQLTAQLLLPGEATRDPPPPTRAPTVVNFFVTDSVEPEIRQHPLGSPMN
chain 2: MAEDKTKPSELDQGKYDADDNVKIICLGDSAVGKSKLMERFLMDGFQPQQLSTYALTLYKHTATVDGRTILVDFWDTAGQERFQSMHASYYHKAHACIMVFDVQRKVTYRNLSTWYTELREFRPEIPCIVVANKIDDINVTQKSFNFAKKFSLPLYFVSAADGTNVVKLFNDAIRLAVSYKQNSQDFMDEIFQELENFSLEQEEEDVPDQEQSSSIETPSEEAASPHS

Variants of: B1
Assay: co-immunoprecipitation (IP anti-EGFP, Western blot anti-Myc), IP/input band quantitation; lysates from HEK293T cells; Input is 2.5% of lysate used for IP; parent: 100

Row | Variant | percent of parent
1 | chain 1 MVPEPGPVNSSTPAWGPGPPPAPGGSGWVAAALCVVIVLTAAANSLLIALICTQPALRNTSNFFLVSLFTSDLMVGLVVMPPAMLNALYGRWVLARGLCLLWTAFDVMCCSASILNLCLISLDRYLLILSPLRYKLRMTAPRALALILGAWSLAALASFLPLLLGWHELGKARTSAPGQCRLLASLPYVLVASGVTFFLPSGAICFTYCRILLAARKQAVQVASLTTGTATAGQALETLQVPRTPRPGMESADSRRLTTKHSRKALKASLTLGILLSMFFVTWLPFFVASIAQAVCDCISPGLFDVLTWLGYCNSTMNPIIYPLFMRDFKRALGRFVPCVHCPPEHRASPASPSMWTSHSGARPGLSLQQVLPLPLPPNSDSDSASGGTSGLQLTAQAAAPGEATRDPPPPTRAPTVVNFFVTDSVEPEIRQHPLGSPMN [chain 1 L398A, chain 1 L399A, chain 1 L400A] | 103%

Variants of: B1
Assay: as above
Remark: another data set of the same source

Row | Variant | percent of parent
2 | chain 1 MVPEPGPVNSSTPAWGPGPPPAPGGSGWVAAALCVVIVLTAAANSLLIALICTQPALRNTSNFFLVSLFTSDLMVGLVVMPPAMLNALYGRWVLARGLCLLWTAFDVMCCSASILNLCLISLDRYLLILSPLRYKLRMTAPRALALILGAWSLAALASFLPLLLGWHELGKARTSAPGQCRLLASLPYVLVASGVTFFLPSGAICFTYCRILLAARKQAVQVASLTTGTATAGQALETLQVPRTPRPGMESADSRRLTTKHSRKALKASLTLGILLSMFFVTWLPFFVASIAQAVCDCISPGLFDVLTWLGYCNSTMNPIIYPLFMRDFKRALGRFVPCVHCPPEHRASPASPSMWTSHSGARPGLSLQQVLPLPLPPNSDSDSASGGTSGLQLTAQAAAPGEATRDPPPPTRAPTVVNFFVTDSVEPEIRQHPLGSPMN [chain 1 L398A, chain 1 L399A, chain 1 L400A] | 121%
3 | chain 1 MVPEPGPVNSSTPAWGPGPPPAPGGSGWVAAALCVVIVLTAAANSLLIALICTQPALRNTSNFFLVSLFTSDLMVGLVVMPPAMLNALYGRWVLARGLCLLWTAFDVMCCSASILNLCLISLDRYLLILSPLRYKLRMTAPRALALILGAWSLAALASFLPLLLGWHELGKARTSAPGQCRLLASLPYVLVASGVTFFLPSGAICFTYCRILLAAAAAAVQVASLTTGTATAGQALETLQVPRTPRPGMESADSRRLTTKHSRKALKASLTLGILLSMFFVTWLPFFVASIAQAVCDCISPGLFDVLTWLGYCNSTMNPIIYPLFMRDFKRALGRFVPCVHCPPEHRASPASPSMWTSHSGARPGLSLQQVLPLPLPPNSDSDSASGGTSGLQLTAQAAAPGEATRDPPPPTRAPTVVNFFVTDSVEPEIRQHPLGSPMN [chain 1 R216A, chain 1 K217A, chain 1 Q218A, chain 1 L398A, chain 1 L399A, chain 1 L400A] | 105%
4 | chain 1 MVPEPGPVNSSTPAWGPGPPPAPGGSGWVAAALCVVIVLTAAANSLLIALICTQPALRNTSNFFLVSLFTSDLMVGLVVMPPAMLNALYGRWVLARGLCLLWTAFDVMCCSASILNLCLISLDRYLLILSPLRYKLRMTAPRALALILGAWSLAALASFLPLLLGWHELGKARTSAPGQCRLLASLPYVLVASGVTFFLPSGAICFTYCRILLAAAAAAVQVASLTTGTATAGQALETLQVPRTPRPGMESADSRRLTTKHSRKALKASLTLGILLSMFFVTWLPFFVASIAQAVCDCISPGLFDVLTWLGYCNSTMNPIIYPLFMRDFKRALGRFVPCVHCPPEHRASPASPSMWTSHSGARPGLSLQQVLPLPLPPNSDSDSASGGTSGLQLTAQLLLPGEATRDPPPPTRAPTVVNFFVTDSVEPEIRQHPLGSPMN [chain 1 R216A, chain 1 K217A, chain 1 Q218A] | 84%
